Here are results for eleven variants from article PMC8864165, “Functional Effects of ARV-1502 Analogs Against Bacterial Hsp70 and Implications for Antimicrobial Activity” (Frontiers in Chemistry, 2022).

B1: unnamed (parent)
chain 1: RPDKPRPYLPRPRPPRPVR
chain 2: not shown

The variants in the test derive from B1. Briefly: competitive fluorescence polarization. The settings on record: with partner chain of the complex shown; S. aureus DnaK 16 µmol/L; unlabeled peptide 35 µmol/L. For orientation: Fluorescence polarisation rises when a labelled molecule tumbles more slowly, as on binding a larger partner.
Turning to chain 1 D3K K4S, the ratio to parent is less than 1.

chain 1 D3K K4F: the ratio to parent is less than 1.

Consider chain 1 D3K K4L, for which the ratio to parent is less than 1.

Regarding chain 1 D3F K4F R11F, the ratio to parent was less than 1.

In the case of chain 1 D3F K4F R11L, the ratio to parent was less than 1.

On to chain 1 D3F K4F P10S, for which the ratio to parent was less than 1.

For chain 1 D3F K4F P10D, the ratio to parent is less than 1.

In the case of chain 1 D3S K4S Y8L, the ratio to parent was less than 1.

Take chain 1 D3K R11L: the ratio to parent is less than 1.

As for chain 1 D3S K4S R11L, the ratio to parent is less than 1.

Take chain 1 Y8L: the ratio to parent is less than 1.
